Data published in patent US10117916B2, “Peptides and combination of peptides for use in immunotherapy against CLL and other cancers” (immatics biotechnologies GmbH, priority 2015, dated 2018).

What follows are substances tested against HLA-A*02:01 (Homo sapiens, UniProt P04439, D140Y/D185E/D98H/E176V/E277Q/G131W/G231S/I119V/I121R/I166T/I218V/L300P/L318F/N151K/N90K/P208A/P217A/Q86G/Q94H/R138H/R169H/T345S) (assay: MHC binding assay: UV-ligand exchange with β2m ELISA (peptide exchange yield)). Details: MHC class I binding score; binding to HLA-A*02:01 ranged by peptide exchange yield (UV-ligand exchange, β2m ELISA).
From the text: Candidate peptides for T cell based therapies according to the present invention were further tested for their MHC binding capacity (affinity). The individual peptide-MHC complexes were produced by UV-ligand exchange, where a UV-sensitive peptide is cleaved upon UV-irradiation, and exchanged with the peptide of interest as analyzed. Only peptide candidates that can effectively bind and stabilize the peptide-receptive MHC molecules prevent dissociation of the MHC complexes. To determine the yield of the exchange reaction, an ELISA was performed based on the detection of the light chain (β2m) of stabilized MHC complexes. The assay was performed as generally described in Rodenko et al. (Rodenko et al., 2006).
96 well MAXISorp plates (NUNC) were coated over night with 2 ug/ml streptavidin in PBS at room temperature, washed 4× and blocked for 1 h at 37° C. in 2% BSA containing blocking buffer. Refolded HLA-A*02:01/MLA-001 monomers served as standards, covering the range of 15-500 ng/ml. Peptide-MHC monomers of the UV-exchange reaction were diluted 100 fold in blocking buffer. Samples were incubated for 1 h at 37° C., washed four times, incubated with 2 ug/ml HRP conjugated anti-β2m for 1 h at 37° C., washed again and detected with TMB solution that is stopped with […]. Absorption was measured at 450 nm. Candidate peptides that show a high exchange yield (preferably higher than 50%, most preferred higher than 75%) are generally preferred for a generation and production of antibodies or fragments thereof, and/or T cell receptors or fragments thereof, as they show sufficient avidity to the MHC molecules and prevent dissociation of the MHC complexes.

| Peptide Exchange | Substance |
| --- | --- |
| ″+++″ (≥50 = +++) | 156 (SLNIGDVQL; listed as Homo sapiens) [compound 156] |
| ″+++″ (≥50 = +++) | 158 (SLPEAPLDV; listed as Homo sapiens) [compound 158] |
| ″++″ (≥20% = ++) | 165 (TLDDDLDTV; listed as Homo sapiens) [compound 165] |
| ″++++″ (≥75% = ++++) | 168 (YLLDQSFVM; listed as Homo sapiens) [compound 168] |
| ″+++″ (≥50 = +++) | 169 (TLLLGLTEV; listed as Homo sapiens) [compound 169] |
| ″+++″ (≥50 = +++) | 171 (TLVPPAALISI; listed as Homo sapiens) [compound 171] |
| ″+++″ (≥50 = +++) | 172 (TLYDMLASI; listed as Homo sapiens) [compound 172] |
| ″+++″ (≥50 = +++) | 175 (FTVPRVVAV; listed as Homo sapiens) [compound 175] |
| ″+++″ (≥50 = +++) | 178 (VLFFNVQEV; listed as Homo sapiens) [compound 178] |
| ″++″ (≥20% = ++) | 180 (LLKDGPEIGL; listed as Homo sapiens) [compound 180] |
| ″+++″ (≥50 = +++) | 181 (VLLSIPFVSV; listed as Homo sapiens) [compound 181] |
| ″+++″ (≥50 = +++) | 182 (VLLSVPGPPV; listed as Homo sapiens) [compound 182] |
| ″+++″ (≥50 = +++) | 183 (VLMPTVYQQGV; listed as Homo sapiens) [compound 183] |
| ″++++″ (≥75% = ++++) | 186 (VMDPTKILI; listed as Homo sapiens) [compound 186] |
| ″+++″ (≥50 = +++) | 193 (YLDLSNNRL; listed as Homo sapiens) [compound 193] |
| ″++++″ (≥75% = ++++) | 194 (YLDNVLAEL; listed as Homo sapiens) [compound 194] |
| ″++++″ (≥75% = ++++) | 195 (YLGGFALSV; listed as Homo sapiens) [compound 195] |
| ″+″ (≥10% = +) | 196 (YLLLQTYVL; listed as Homo sapiens) [compound 196] |
| ″+++″ (≥50 = +++) | 209 (ILQAELPSL; listed as Homo sapiens) [compound 209] |
| ″+++″ (≥50 = +++) | 210 (KLLVQDFFL; listed as Homo sapiens) [compound 210] |
| ″+++″ (≥50 = +++) | 214 (RLQELTEKL; listed as Homo sapiens) [compound 214] |
| ″++″ (≥20% = ++) | 218 (ALGEEWKGYVV; listed as Homo sapiens) [compound 218] |
| ″+++″ (≥50 = +++) | 219 (ALLNLLESA; listed as Homo sapiens) [compound 219] |
| ″+++″ (≥50 = +++) | 224 (AMEALVVEV; listed as Homo sapiens) [compound 224] |
| ″+++″ (≥50 = +++) | 227 (FLAEASVMTQL; listed as Homo sapiens) [compound 227] |

Second part, the substance before the results:

| Substance | Peptide Exchange |
| --- | --- |
| 157 (SLNIRDFTM; listed as Homo sapiens) [compound 157] | ″+++″ (≥50 = +++) |
| 159 (SLQEEKLIYV; listed as Homo sapiens) [compound 159] | ″+++″ (≥50 = +++) |
| 160 (SLSFLVPSL; listed as Homo sapiens) [compound 160] | ″+++″ (≥50 = +++) |
| 161 (SMDDGMINV; listed as Homo sapiens) [compound 161] | ″+++″ (≥50 = +++) |
| 162 (SMKDDLENV; listed as Homo sapiens) [compound 162] | ″++″ (≥20% = ++) |
| 163 (SQLDISEPYKV; listed as Homo sapiens) [compound 163] | ″+++″ (≥50 = +++) |
| 164 (SVHKGFAFV; listed as Homo sapiens) [compound 164] | ″+++″ (≥50 = +++) |
| 166 (TLDPNQVSL; listed as Homo sapiens) [compound 166] | ″++″ (≥20% = ++) |
| 167 (TLDTSKLYV; listed as Homo sapiens) [compound 167] | ″+++″ (≥50 = +++) |
| 170 (TLTFRVETV; listed as Homo sapiens) [compound 170] | ″+++″ (≥50 = +++) |
| 173 (TVIENIHTI; listed as Homo sapiens) [compound 173] | ″++″ (≥20% = ++) |
| 174 (VLAELPIIVV; listed as Homo sapiens) [compound 174] | ″+++″ (≥50 = +++) |
| 176 (VLAEQNIIPSA; listed as Homo sapiens) [compound 176] | ″+++″ (≥50 = +++) |
| 177 (VLDDRELLL; listed as Homo sapiens) [compound 177] | ″+++″ (≥50 = +++) |
| 179 (VLLGLEMTL; listed as Homo sapiens) [compound 179] | ″+++″ (≥50 = +++) |
| 184 (VLSHNLYTV; listed as Homo sapiens) [compound 184] | ″+++″ (≥50 = +++) |
| 185 (VMDDQRDLI; listed as Homo sapiens) [compound 185] | ″++″ (≥20% = ++) |
| 187 (VMDTHLVNI; listed as Homo sapiens) [compound 187] | ″++++″ (≥75% = ++++) |
| 188 (VMGDIPAAV; listed as Homo sapiens) [compound 188] | ″++″ (≥20% = ++) |
| 189 (VMLEMTPEL; listed as Homo sapiens) [compound 189] | ″+++″ (≥50 = +++) |

| Substance | Peptide Exchange |
| --- | --- |
| 190 (VVMGTVPRL; listed as Homo sapiens) [compound 190] | ″+++″ (≥50 = +++) |
| 191 (YIFDGSDGGV; listed as Homo sapiens) [compound 191] | ″+++″ (≥50 = +++) |
| 198 (YLTFLPAEV; listed as Homo sapiens) [compound 198] | ″+++″ (≥50 = +++) |
| 199 (YLVELSSLL; listed as Homo sapiens) [compound 199] | ″++++″ (≥75% = ++++) |
| 203 (ALLSSQLAL; listed as Homo sapiens) [compound 203] | ″+++″ (≥50 = +++) |
| 204 (GLLQINDKIAL; listed as Homo sapiens) [compound 204] | ″+++″ (≥50 = +++) |
| 205 (GLSQANFTL; listed as Homo sapiens) [compound 205] | ″+++″ (≥50 = +++) |
| 206 (HMQDVRVLL; listed as Homo sapiens) [compound 206] | ″+++″ (≥50 = +++) |
| 207 (IIADLDTTIMFA; listed as Homo sapiens) [compound 207] | ″+++″ (≥50 = +++) |
| 208 (ILLKTEGINL; listed as Homo sapiens) [compound 208] | ″+++″ (≥50 = +++) |
| 211 (LIDVKPLGV; listed as Homo sapiens) [compound 211] | ″+++″ (≥50 = +++) |
| 215 (VMQDIVYKL; listed as Homo sapiens) [compound 215] | ″+++″ (≥50 = +++) |
| 216 (WLAGDVPAA; listed as Homo sapiens) [compound 216] | ″+++″ (≥50 = +++) |
| 217 (ALDEPPYLTV; listed as Homo sapiens) [compound 217] | ″+++″ (≥50 = +++) |
| 221 (ALVSTIIMV; listed as Homo sapiens) [compound 221] | ″+″ (≥10% = +) |
| 222 (ALWELSLKI; listed as Homo sapiens) [compound 222] | ″+++″ (≥50 = +++) |
| 223 (ALWVSQPPEI; listed as Homo sapiens) [compound 223] | ″+++″ (≥50 = +++) |
| 225 (ILQERELLPV; listed as Homo sapiens) [compound 225] | ″+++″ (≥50 = +++) |
| 226 (AMNISVPQV; listed as Homo sapiens) [compound 226] | ″+++″ (≥50 = +++) |
